Article PMC2880568 (PLoS Pathogens, 2010)

Experiments:
Conditions in all cases: both partners purified
[1] = target: T1, EloBC (elongin B - elongin C heterodimer) (UniProt Q15370 1-118; Q15369 16-111); experiment: ITC
T1 construct: also called EloB-EloC heterodimer; full length EloBC

[2] = target: T1, EloBC (elongin B - elongin C …); experiment: SEC
[3] = target: T1, EloBC (elongin B - elongin C …); experiment: NMR titration

T1 sequence (Q15370 whole entry, chain 1 of 2): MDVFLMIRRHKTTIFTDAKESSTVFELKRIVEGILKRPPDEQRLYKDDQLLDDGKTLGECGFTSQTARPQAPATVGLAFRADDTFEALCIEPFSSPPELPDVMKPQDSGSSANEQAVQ
T1 sequence (Q15369 16-111, chain 2 of 2): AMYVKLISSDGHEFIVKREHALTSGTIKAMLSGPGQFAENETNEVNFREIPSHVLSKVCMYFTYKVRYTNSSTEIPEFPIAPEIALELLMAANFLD

B1: wild type Vif SOCS-box protein (domain or fragment)
chain: not shown
notes: source: E. coli BL21(DE3), purified (Ni-NTA, Superdex 75)
For B1, the Kd [1] was 1200 nM, the “stoichiometry N” value [2] was 1 and the “KD fitted to the peak of EloB Asp-101” value [3] was 1.71 µM. For the same binder, the “KD fitted to the peak of EloB Lys-104” value [3] was 3.56 µM, the “KD fitted to the peak of EloB Met-103” value [3] was 1.73 µM and the “KD fitted to the peak of EloB Val-102” value [3] was 0.43 µM.

B2: ΔPPL Vif SOCS-box protein (domain or fragment)
chain: HNKVGSLQYLALAALITPKKIKAAAPSVTKLTEDRWNK
notes: as for B1
With B2 the Kd [1] was 1250 nM.
